According to the DeepSol protein solubility set:

Assay: soluble on expression in E. coli; label from the status in PepcDB or PDB records

| Sequence | soluble on expression in E. coli |
| --- | --- |
| MRDLYPLTRRRLLTAMALSPLLWQMNTAQAAAIDPRRIVALEWLPVELLLALGITPYGVADVPNYKLWVSEPPLPDSVIDVGLRTEPNLELLTEMKPSFMVWSAGYGPSPEKLARIAPGRGFDFSDGKKPLAVARRSLVELAQTLNLEAAAEKHLAQYDRFIASQKPHFIRRGGRPLLMTTLIDPRHMLVLGPNCLFQEVLDEYGIVNAWQGETNFWGSTAVSIDRLAMYKEADVICFDHGNNTDMNALMATPLWQAMPFVRAGRFHRVPAVWFYGATLSTMHFVRILNNVLGGKA | not soluble |
| HMKIAIFGTVGAGKSTISAEISKKLGYEIFKEPVEENPYFEQYYKDLKKTVFKMQIYMLTARSKQLKQAKNLENIIFDRTLLEDPIFMKVNYDLNNVDQTDYNTYIDFYNNVVLENLKIPENKLSFDIVIYLRVSTKTAISRIKKRGRSEELLIGEEYWETLNKNYEEFYKQNVYDFPFFVVDAELDVKTQIELIMNKLNSIKNPN | soluble |
| MGSSHHHHHHSSGLVPRGSHMASAASYPPIKNTKVGLALSSHPLASEIGQKVLEEGGNAIDAAVAIGFALAVVHPAAGNIGGGGFAVIHLANGENVALDFREKAPLKATKNMFLDKQGNVVPKLSEDGYLAAGVPGTVAGMEAMLKKYGTKKLSQLIDPAIKLAENGYAISQRQAETLKEARERFLKYSSSKKYFFKKGHLDYQEGDLFVQKDLAKTLNQIKTLGAKGFYQGQVAELIEKDMKKNGGIITKEDLASYNVKWRKPVVGSYRGYKIISMSPPSSGGTHLIQILNVMENADLSALGYGASKNIHIAAEAMRQAYADRSVYMGDADFVSVPVDKLINKAYAKKIFDTIQPDTVTPSSQIKPGMGQLHEGSN | soluble |
| MNQQDIEQVVKAVLLKMKDSSQPASTVHEMGVFASLDDAVAAAKRAQQGLKSVAMRQLAIHAIREAGEKHARELAELAVSETGMGRVDDKFAKNVAQARGTPGVECLSPQVLTGDNGLTLIENAPWGVVASVTPSTNPAATVINNAISLIAAGNSVVFAPHPAAKKVSQRAITLLNQAVVAAGGPENLLVTVANPDIETAQRLFKYPGIGLLVVTGGEAVVDAARKHTNKRLIAAGAGNPPVVVDETADLPRAAQSIVKGASFDNNIICADEKVLIVVDSVADELMRLMEGQHAVKLTAAQAEQLQPVLLKNIDERGKGTVSRDWVGRDAGKIAAAIGLNVPDQTRLLFVETPANHPFAVTEMMMPVLPVVRVANVEEAIALAVQLEGGCHHTAAMHSRNIDNMNQMANAIDTSIFVKNGPCIAGLGLGGEGWTTMTITTPTGEGVTSARTFVRLRRCVLVDAFRIV | not soluble |
| MAELRQVQVDIQQPGGIRELVQREAGDQVRGQDSFPGPDIRRVYQEVRYERRGKLICLIMAGGLGSRMNRPEKALIEVHGEALVDRTIRCMNGICSDIYALIDPSMERLQGKLRSVNVKVLAKRRGGYIEDLNHAMHSIGKFPILVIPGDIFIFNCSAFLDAVRRGMLAEANVVSFTDAGQYTGISIFNAQSGSYQDIDLNGSVANINTPEDLRAVIERLRTSEKLDGSAGHADG | not soluble |
| MLPNGRKWLDLWRKNVTVTAGGFLAISATTGVAGYEMAKDDVTLIKNGNKQEIRTHAKTVKELLAEQNIQPRKEDYVYPSLHSPITDDLHIVWEASKEVTLTVNGKKKKIWTTADTVAELLRSQHVAVGAYDKVAPALSAKIQKGMDIGVEKAFPVHVNVGGKQQQVWTTSTTVADFLKQQGIQLGQFDRIEPSLHETVKEQMTIRVIRVKKVTDVVEEPVDFAVVTKRDDSLPKGERRVIQPGEKGMVQKTYEVTLENGKETARKLIAAKTLKESKARIVAIGTKTVRSAAAPDRPSSRGSDHAAKEFYVTATAYTAYCAGCSGITSTGINLRKNPSAKVIAVDPSIIPLGSKVYVEGYGYAIAADTGSGIRGYKIDVFFPERSDAFRWGRKRVKIRVLP | not soluble |
| MGSDKIHHHHHHMKFIVSSTALFSHLQAVSRVINSKNALPILDCFLFQLEDGTLSVTVSDSETTMVTSVEVNESDSNGKFAVAAKTLLDALKEIPEQPLTFDIKPDTYEITVQYQNGKYSLMGQNADEFPQSATLGDNAVRVEMEAQILLGGINRSVFATADDELRPVMNGIYFDITTEDITMVASDGHKLVRCKTLAARGNERAAFILPKKPATLLKNLLPKESGMVVIEFDERNAVFTLESYRMVCRLIEGRYPNYNSVIPQNNPHKVTVDRMQLMGALRRVSIFSSQASSLIKLRMQENQIVVSAQDIDFSTSAEETQVCQYAGAAMSIGFKSTFLIDILNNISADEVVIELADPSRAGVIIPVEQEENEDLLMLLMPMMLND | not soluble |
| MSFTTKVKEELIHLSTGDNNELAAIIKLSGSLGLAHQSLHLSITTENAKIARYIYSLIEDAYVIVPEIRYHQKTNLRKNRVYTVYVEQGVETILADLKLADSFFGLETGIEPQVLSDDNAGRSYLKGAFLAAGSIRDPESGKYQLEIYSVYLDHAQDLAQLMQKFMLDAKTIEHKSGAVTYLQKAEDIMDFLIIIGAMSCKEDFEAIKLLREARNDINRANNAETANIAKTISASMKTINNIIKIMDTIGLESLPIELQQVAQLRVKHPDYSIQQVADALEFPITKSGVNHRLRKINKIADDL | not soluble |
| MMINVHSYESMGTFDGPGLRLVVFLQGCNFRCLYCANPDTIAGKGGTPTPPEEIVRMAMSQRPFFGKRGGITFSGGEPTFQAKALVPLVRELKERGIHVCLDSNGGLWNEDVEELFKLTDLVLLDIKEFNPNRHQTLTGRSNEQTIRTAAWLEEQGKPFWLRYVLVPGYSDFEEDIRALGEALGKYKMIQRVEILPYHTLGVHKYEAMGQEYKMKGVKENTPEQLEKAAEVFKEYFTTVVVNLEHHHHHH | soluble |
| MAHHHHHHMKQSKLVSRPSKTKKPKERKDRREDERYQREMDALIAREVARENVSMRSDTHKPQPKLLEEVQKDTSRRPKTPTSLSTAAVEKQAKIDKESGFQPVVNQRKERQQQQHQQQQTSAPKPMLVNEALERKLNHFFSNLNRKEKLTRLSQPEENPTASKGATIIVRKDIANARSWQQQQQ | soluble |
| MGSDKIHHHHHHMIVEKVLIVDPIDGEFTGDVEIEEGKIVKVEKRECIPRGVLMPGFVDPHIHGVVGADTMNCDFSEMEEFLYSQGVTTFLATTVSTSLEKMKEILRKARDYILENPSTSLLGVHLEGPYISKEKKGAHSEKHIRPPSERELSEIDSPAKMLTFAPEIESSELLLRLVKRDIVLSAGHSIATFEEFMKFYKEGVKRITHFPNGLKPLHHREIGITGAGLLLDDVKLELICDGVHLSREMVKLVYKVKKANGIVLVTDSISAAGLKDGTTTLGDLVVKVKDGVPRLEDGTLAGSTLFFSQAVKNFRKFTGCSITELAKVSSYNSCVELGLDDRGRIAEGTRADLVLLDEDLNVVMTIKEGEVVFRSR | soluble |
| MEYELLIREAEPKDAAELVAFLNRVSLETDFTSLDGDGILLTSEEMEIFLNKQASSDNQITLLAFLNGKIAGIVNITADQRKRVRHIGDLFIVIGKRYWNNGLGSLLLEEAIEWAQASGILRRLQLTVQTRNQAAVHLYQKHGFVIEGSQERGAYIEEGKFIDVYLMGKLIG | soluble |
| MKTFESLFAELSEKAQTRPEGSLTVDELDKGTHFIGKKIIEEAGETWMAAEYEGADRTAEEMSQLLYHVQVMMIKHGLTLEDVYKHL | soluble |
